According to the supplement of paper PMC7932537, “Quantitative profiling of protease specificity” (PLoS Computational Biology, 2021):
± gives the uncertainty stated by the source.

Assays:
MMP-2 catalytic domain = MMP-2 catalytic domain (UniProt P08253); assay: kcat/KM (M-1 s-1); higher = more efficient cleavage by the protease
Method: (§1)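 Catalytic efficiency (kcat/KM) of synthetic peptides carrying hexamer sequences taken from MMP-2/9 substrate phage selections. Cleavage was measured with recombinant human MMP-2 or MMP-9 catalytic domains (expressed in HEK293, APMA-activated, active-site titrated with GM6001), in triplicate, as described in the authors' ref 27.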

MMP-9 catalytic domain = MMP-9 catalytic domain (UniProt P14780); assay: as above
Sequence of MMP-9 catalytic domain (P14780 whole entry, the tested form may be a part): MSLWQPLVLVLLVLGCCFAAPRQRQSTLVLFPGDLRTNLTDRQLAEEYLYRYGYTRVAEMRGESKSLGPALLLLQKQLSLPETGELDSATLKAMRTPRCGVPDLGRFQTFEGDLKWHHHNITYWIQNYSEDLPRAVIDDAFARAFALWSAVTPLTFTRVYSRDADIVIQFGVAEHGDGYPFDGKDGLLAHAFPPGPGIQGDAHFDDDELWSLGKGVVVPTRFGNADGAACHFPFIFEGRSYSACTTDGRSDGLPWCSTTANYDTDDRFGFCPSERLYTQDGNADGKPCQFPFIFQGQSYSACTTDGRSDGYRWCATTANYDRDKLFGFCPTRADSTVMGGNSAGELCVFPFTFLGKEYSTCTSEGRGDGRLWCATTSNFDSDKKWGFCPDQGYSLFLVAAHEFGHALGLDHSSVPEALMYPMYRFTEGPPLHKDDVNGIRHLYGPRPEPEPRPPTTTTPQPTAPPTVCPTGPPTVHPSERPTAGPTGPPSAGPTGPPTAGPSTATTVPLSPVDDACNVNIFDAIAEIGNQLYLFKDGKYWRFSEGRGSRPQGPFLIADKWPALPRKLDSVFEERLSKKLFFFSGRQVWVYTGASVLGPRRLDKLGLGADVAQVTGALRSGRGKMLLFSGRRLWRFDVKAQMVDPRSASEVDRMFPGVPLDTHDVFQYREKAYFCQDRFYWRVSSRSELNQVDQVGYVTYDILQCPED
Method: as §1

Sequence of MMP-2 catalytic domain (P08253 whole entry, looked up, the tested form may be a part): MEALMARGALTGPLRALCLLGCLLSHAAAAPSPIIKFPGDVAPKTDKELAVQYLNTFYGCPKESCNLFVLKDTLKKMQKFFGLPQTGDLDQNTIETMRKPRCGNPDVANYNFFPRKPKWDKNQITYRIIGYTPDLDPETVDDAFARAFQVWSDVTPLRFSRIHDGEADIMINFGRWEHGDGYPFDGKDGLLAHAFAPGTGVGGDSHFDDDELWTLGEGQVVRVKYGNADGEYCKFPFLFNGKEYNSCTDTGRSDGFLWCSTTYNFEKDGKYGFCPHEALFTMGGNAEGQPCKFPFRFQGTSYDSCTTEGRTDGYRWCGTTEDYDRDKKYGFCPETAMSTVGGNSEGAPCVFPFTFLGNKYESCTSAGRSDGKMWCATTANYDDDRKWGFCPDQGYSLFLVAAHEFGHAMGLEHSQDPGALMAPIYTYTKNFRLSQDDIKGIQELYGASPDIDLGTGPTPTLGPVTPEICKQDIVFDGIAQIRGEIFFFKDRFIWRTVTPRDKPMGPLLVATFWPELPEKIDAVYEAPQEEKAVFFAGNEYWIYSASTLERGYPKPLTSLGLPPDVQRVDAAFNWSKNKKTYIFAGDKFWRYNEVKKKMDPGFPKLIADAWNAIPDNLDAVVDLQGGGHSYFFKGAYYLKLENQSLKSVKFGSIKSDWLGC

Row | Substance | kcat/KM (MMP-2 catalytic domain) | kcat/KM (MMP-9 catalytic domain)
1 | AHNLSS | 16400 ± 620 | 9130 ± 640
2 | APALWI | 34400 ± 940 | 33400 ± 740
3 | ARHYKS | 15840 ± 130 | 25200 ± 1700
4 | DGPVSF | 22200 ± 940 | 9530 ± 160
5 | DRKPKA | 0 | 0
6 | DSPQNL | 56400 ± 5200 | 37200 ± 4900
7 | EGPAGL | 133000 ± 23000 | 55400 ± 2200
8 | EPKPLL | 17700 ± 940 | 18900 ± 2200
9 | EPVSLA | 7230 ± 110 | 2680 ± 64
10 | ETPRPW | 19700 ± 660 | 7950 ± 380
11 | EVPQAL | 47700 ± 3300 | 43200 ± 580
12 | GEPFEL | 8910 ± 670 | 15500 ± 1100
13 | GEPRGQ | 48000 ± 960 | 52200 ± 3000
14 | GKPVSM | 69800 ± 46000 | 43700 ± 2600
15 | GPAGIR | 181000 ± 96000 | 49830 ± 250
16 | GPALSY | 12600 ± 210 | 17500 ± 760
17 | GPARPY | 39700 ± 1900 | 26200 ± 1600
18 | GPEGMK | 9100 ± 920 | 3600 ± 320
19 | GPHGYK | 16400 ± 670 | 22100 ± 340
20 | GPKGFR | 88300 ± 4700 | 34000 ± 2300
21 | GPRGLK | 125000 ± 5300 | 71030 ± 710
22 | GPRYLM | 30900 ± 11000 | 37800 ± 1800
23 | GQPMNL | 51400 ± 4300 | 90600 ± 8800
24 | HPVSMV | 32100 ± 18000 | 8720 ± 330
25 | INPQGL | 114000 ± 14000 | 74100 ± 8200

Row | Substance | kcat/KM (MMP-2 catalytic domain) | kcat/KM (MMP-9 catalytic domain)
26 | IPLASL | 45700 ± 960 | 3730 ± 120
27 | IRPKHF | 43200 ± 4200 | 97100 ± 7900
28 | KPVNMT | 37600 ± 1600 | 84500 ± 2000
29 | KSPLRQ | 6570 ± 450 | 34600 ± 230
30 | KSPQAM | 62600 ± 6300 | 109000 ± 7600
31 | KSPQSY | 46500 ± 1900 | 66100 ± 4700
32 | KSPSRL | 182000 ± 45000 | 140000 ± 4400
33 | KSPVGV | 15000 ± 600 | 18400 ± 730
34 | LPKPLR | 42400 ± 1700 | 45900 ± 2300
35 | LSPFGQ | 10000 ± 610 | 46100 ± 1800
36 | MGPLGQ | 64800 ± 3000 | 73000 ± 9100
37 | MRPVGH | 39300 ± 3400 | 31800 ± 2600
38 | MSPANI | 188000 ± 23000 | 94700 ± 7900
39 | NPMPIR | 22600 ± 6500 | 21200 ± 1300
40 | NPQNIR | 35600 ± 560 | 20300 ± 620
41 | NRPNNL | 88100 ± 10000 | 46200 ± 2100
42 | NVARPM | 23900 ± 1000 | 27000 ± 2400
43 | PAGVKA | 51800 ± 1300 | 15200 ± 610
44 | PAPNSL | 87800 ± 14000 | 49000 ± 6600
45 | PAQLHV | 26000 ± 290 | 7420 ± 290
46 | PEGLQG | 33700 ± 1200 | 19900 ± 590
47 | PEPAAL | 104000 ± 6400 | 89400 ± 9500
48 | PGPAGQ | 154000 ± 23000 | 59800 ± 2100
49 | PGPIGI | 22800 ± 800 | 38500 ± 1900
50 | PGPIGW | 27000 ± 1000 | 28700 ± 860

Row | Substance | kcat/KM (MMP-2 catalytic domain) | kcat/KM (MMP-9 catalytic domain)
51 | PHGLAT | 16300 ± 2800 | 12500 ± 270
52 | PHGYKG | 34600 ± 650 | 54200 ± 4300
53 | PHNILS | 23800 ± 1000 | 51700 ± 1400
54 | PHPRLL | 30700 ± 650 | 75300 ± 11000
55 | PIQLQS | 10300 ± 350 | 11900 ± 320
56 | PKALPY | 31000 ± 590 | 37300 ± 1400
57 | PKGYQG | 48000 ± 2700 | 85700 ± 1400
58 | PLQLQT | 10000 ± 190 | 24900 ± 1200
59 | PLRQIG | 12300 ± 2000 | 33200 ± 5000
60 | PMALMD | 15300 ± 440 | 36900 ± 3300
61 | PMDIHA | 15300 ± 280 | 46000 ± 1400
62 | PQGLAG | 37400 ± 1300 | 40400 ± 1100
63 | PQPEGL | 53800 ± 2400 | 48400 ± 2200
64 | PQPLDL | 32300 ± 2800 | 55200 ± 2700
65 | PQPSEL | 51200 ± 2200 | 45500 ± 5000
66 | PRGFSH | 1390 ± 1400 | 896 ± 900
67 | PRGVKG | 58000 ± 1400 | 62100 ± 850
68 | PRPFHH | 9900 ± 730 | 23900 ± 850
69 | PRPQAA | 13400 ± 1100 | 17000 ± 880
70 | PSNMEG | 92000 ± 14000 | 50100 ± 8300
71 | PSPADI | 70600 ± 3700 | 18600 ± 1600
72 | PTPKAL | 35900 ± 2400 | 69100 ± 1900
73 | PVAIPM | 7030 ± 260 | 12400 ± 760
74 | PVGMKG | 60400 ± 1200 | 64000 ± 7200
75 | PVNMTD | 15700 ± 290 | 9420 ± 660

Row | Substance | kcat/KM (MMP-2 catalytic domain) | kcat/KM (MMP-9 catalytic domain)
76 | PYEWHS | 5850 ± 600 | 26000 ± 1200
77 | PYGIKG | 54400 ± 2400 | 51400 ± 2200
78 | QGPAAI | 92100 ± 1800 | 72300 ± 1400
79 | QPLEIR | 28400 ± 1100 | 45100 ± 1200
80 | QPPLPL | 15400 ± 1400 | 18700 ± 350
81 | QQPQAL | 46800 ± 2300 | 70100 ± 2900
82 | QQPSRL | 259000 ± 29000 | 94300 ± 1600
83 | QSPINL | 31000 ± 750 | 61100 ± 2800
84 | RMMREL | 25300 ± 650 | 9020 ± 390
85 | RPEDLR | 21300 ± 500 | 16500 ± 1300
86 | RRPRPL | 25000 ± 850 | 38200 ± 2100
87 | SAAQPL | 12900 ± 340 | 11600 ± 400
88 | SIPLPL | 15100 ± 430 | 22400 ± 340
89 | SPMAFS | 18400 ± 250 | 11400 ± 440
90 | SPPAAI | 79700 ± 8500 | 64400 ± 1800
91 | SRPAEF | 98800 ± 35000 | 16400 ± 740
92 | TAPSSQ | 141600 ± 1200 | 45100 ± 8000
93 | TPAAMT | 107000 ± 13000 | 21100 ± 1300
94 | TQPKAM | 54700 ± 1400 | 106000 ± 4800
95 | TTPSPI | 115000 ± 20000 | 41000 ± 7100
96 | VEPLKF | 18000 ± 700 | 48900 ± 1900
97 | VHPSAV | 34300 ± 940 | 33900 ± 3000
98 | VPQEWR | 27700 ± 1800 | 16200 ± 1600
99 | VSALSS | 24900 ± 1200 | 7040 ± 190
100 | WPSPFR | 36800 ± 970 | 11600 ± 180
